Experimental data published in publication PMC3413157.
Like-named read-outs stand apart in the source and are kept apart here.

Experiments:
Test in all cases: EMSA
[1] = molecular target: T1, Dna2 (hDna2) (human, UniProt P51530 1-1060)
T1 sequence: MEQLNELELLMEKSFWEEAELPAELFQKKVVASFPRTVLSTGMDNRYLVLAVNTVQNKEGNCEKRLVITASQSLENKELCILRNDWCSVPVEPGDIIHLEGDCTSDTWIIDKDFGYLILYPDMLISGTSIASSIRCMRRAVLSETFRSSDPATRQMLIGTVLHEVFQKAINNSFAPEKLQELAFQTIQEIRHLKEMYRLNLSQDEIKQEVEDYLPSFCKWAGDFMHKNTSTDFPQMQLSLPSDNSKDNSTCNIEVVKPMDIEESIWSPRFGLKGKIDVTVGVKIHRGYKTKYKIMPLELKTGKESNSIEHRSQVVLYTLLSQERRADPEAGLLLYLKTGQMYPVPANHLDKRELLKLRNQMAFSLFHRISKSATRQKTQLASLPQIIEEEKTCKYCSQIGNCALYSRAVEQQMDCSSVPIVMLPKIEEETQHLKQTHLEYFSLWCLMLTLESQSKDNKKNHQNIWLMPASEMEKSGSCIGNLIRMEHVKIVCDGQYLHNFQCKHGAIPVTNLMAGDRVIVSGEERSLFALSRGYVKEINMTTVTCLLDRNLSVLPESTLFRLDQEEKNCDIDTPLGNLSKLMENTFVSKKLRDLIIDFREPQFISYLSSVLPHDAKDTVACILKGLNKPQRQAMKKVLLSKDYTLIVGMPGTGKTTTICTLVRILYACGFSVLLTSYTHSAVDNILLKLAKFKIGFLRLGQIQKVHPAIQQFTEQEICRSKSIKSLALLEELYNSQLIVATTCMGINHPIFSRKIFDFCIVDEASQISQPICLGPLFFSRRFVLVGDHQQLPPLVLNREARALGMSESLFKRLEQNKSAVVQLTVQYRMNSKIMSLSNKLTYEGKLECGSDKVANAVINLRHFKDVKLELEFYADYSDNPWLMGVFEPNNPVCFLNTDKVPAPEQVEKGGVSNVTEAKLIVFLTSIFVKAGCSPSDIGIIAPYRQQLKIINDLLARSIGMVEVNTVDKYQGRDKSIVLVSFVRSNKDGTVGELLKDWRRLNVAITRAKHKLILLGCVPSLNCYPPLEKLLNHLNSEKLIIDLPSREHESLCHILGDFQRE

[2] = molecular target: T2, FEN1 (hFEN1) (human, UniProt P39748 1-380)
[3] = molecular target: T1, Dna2 (hDna2); remark: listed apart in the source
[4] = molecular target: T2, FEN1 (hFEN1); remark: listed apart in the source
[5] = molecular target: T1, Dna2 (hDna2); remark: listed apart in the source
[6] = molecular target: Dna2 (hDna2);FEN1 (hFEN1) (human;human, UniProt P51530;P39748 1-1060;1-380, |)
[7] = molecular target: T1, Dna2 (hDna2); remark: listed apart in the source
[8] = molecular target: T1, Dna2 (hDna2); remark: listed apart in the source
[9] = molecular target: T2, FEN1 (hFEN1); remark: listed apart in the source
[10] = molecular target: T1, Dna2 (hDna2); remark: listed apart in the source

T2 sequence (P39748 whole entry): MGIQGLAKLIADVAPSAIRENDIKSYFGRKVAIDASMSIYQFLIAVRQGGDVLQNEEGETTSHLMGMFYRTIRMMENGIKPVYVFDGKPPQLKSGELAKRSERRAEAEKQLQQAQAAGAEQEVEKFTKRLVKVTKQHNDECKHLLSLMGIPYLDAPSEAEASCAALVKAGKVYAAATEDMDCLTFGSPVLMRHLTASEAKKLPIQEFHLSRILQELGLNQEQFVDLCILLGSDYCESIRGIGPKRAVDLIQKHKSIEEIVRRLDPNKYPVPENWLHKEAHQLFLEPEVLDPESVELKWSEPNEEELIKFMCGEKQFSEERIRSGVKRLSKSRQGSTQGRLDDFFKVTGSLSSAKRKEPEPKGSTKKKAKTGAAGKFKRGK
Chain of Dna2 (hDna2);FEN1 (hFEN1) (P39748 whole entry, one chain of several): as the sequence (P39748 whole entry) above

B1: 2 nt double flap (U1:T1:D1.2) (mixed)
DNA 1: GTCGTTTTACAACGACGTGACTGGG
DNA 2: GCCCAGTCACGTCGTTGTAAAACGGGTCGTGACTGGGAAAACCCTGGCG
DNA 3: CGCCAGGGTTTTCCCAGTCACGACCA
binding result [1]: no binding

B2: 5 nt double flap (U1:T1:D1.5) (mixed)
DNA 1: GCCGTCGTTTTACAACGACGTGACTGGG
DNA 2: B1 DNA 2
DNA 3: CGCCAGGGTTTTCCCAGTCACGACCA
binding result [2]: binds | binding result [1]: no binding

B3: 30 nt double flap (U1:T1:D1.30) (mixed)
DNA 1: TTCACGCCTGTTAGTTAATTCACTGGCCGTCGTTTTACAACGACGTGACTGGG
DNA 2: B1 DNA 2
DNA 3: CGCCAGGGTTTTCCCAGTCACGACCA
binding result [3]: binds | binding result [2]: binds

B4: 20 nt double flap (U1:T1:D1.20) (mixed)
DNA 1: TTAGTTAATTCACTGGCCGTCGTTTTACAACGACGTGACTGGG
DNA 2: B1 DNA 2
DNA 3: CGCCAGGGTTTTCCCAGTCACGACCA
binding result [2]: binds

B5: 15 nt double flap (U1:T1:D1.15) (mixed)
DNA 1: TAATTCACTGGCCGTCGTTTTACAACGACGTGACTGGG
DNA 2: B1 DNA 2
DNA 3: CGCCAGGGTTTTCCCAGTCACGACCA
binding result [2]: binds

B6: 10 nt double flap (U1:T1:D1.10) (mixed)
DNA 1: CACTGGCCGTCGTTTTACAACGACGTGACTGGG
DNA 2: B1 DNA 2
DNA 3: CGCCAGGGTTTTCCCAGTCACGACCA
binding result [2]: binds

B7: 30 nt double flap (U2:T3:D2.30) (mixed)
DNA 1: TTCTACTTCCAATTGATACGCGCTATAACCCCCGTCCACCCGACGCCACCTCCTGC
DNA 2: GCAGGAGGTGGCGTCGGGTGGACGGGATTGAAATTTAGGCTGGCACGGTCG
DNA 3: CGACCGTGCCAGCCTAAATTTCAATT
binding result [4]: binds | binding result [5]: binds | binding result [6]: binds

B8: 30 nt flap, 5 nt gap (U3:T3:D2.30) (mixed)
DNA 1: B7 DNA 1
DNA 2: B7 DNA 2
DNA 3: CGACCGTGCCAGCCTAAATT
binding result [7]: binds

B9: 30 nt flap, 2 nt gap (U4:T3:D2.30) (mixed)
DNA 1: B7 DNA 1
DNA 2: B7 DNA 2
DNA 3: CGACCGTGCCAGCCTAAATTTCA
binding result [8]: binds

B10: 30 nt 5'-tail (T4:D2.30) (mixed)
DNA 1: B7 DNA 1
DNA 2: GCAGGAGGTGGCGTCGGGTGGACGGG
binding result [9]: no binding | binding result [10]: binds

B11: 15 nt 5'-tail (T4:D2.15) (mixed)
DNA 1: ATACGCGCTATAACCCCCGTCCACCCGACGCCACCTCCTGC
DNA 2: GCAGGAGGTGGCGTCGGGTGGACGGG
binding result [9]: no binding
